Test results as given in the domain aggregation screens of Martell et al. (2025).

Assay: soluble fraction after stress (log2 fold change); higher = more stays soluble; pooled small domains, quantitative proteomics
Conditions: stress: 50 degC
In short: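 The stress applied to every library was 50°C. These custom libraries of small protein domains were pooled and measured at high throughput with quantitative proteomics as the read-out. Aggregation propensity is expressed as the base-two logarithm of the fold change in how much of each protein remains soluble. The higher the value, the more of that protein stays in solution.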

Sequence | soluble fraction (log2)
HMKPSISKIYALWGVLQRSGKIKSQDKAALDAFVRKYTGVDHVKWLDESQARKIIEILKQMIA | -0.458
HMKPSKTDEAEYWLMERLEEGPQPAGDLIRIGEEFGYTPKILRDAGERFNMERYKDGLDHWMWKLPN | -0.0945
HMKPVTNHTVKFYVDDVLWKTVTVKHGGNVRLADLPMSDGKTFVGWSESVVNVTKDLTVFALFS | -0.562
HMKPVYNKVEIPRGGEYALVLSDGTKVHLNSMSSLRFPVAFTTGKREVELQGEAYFEVSKTGQPFIVNV | -0.0523
HMKQGKGIIVVDGKLMPEDFNVATLSLDEVESITVLKGEKAVALYGEKAKEREVLLITTQKG | 0.423
HMKQKAEVIFVSKTIMEALSKGVRLTPENLKSETELPIDDFYARLKELIDNGSVVESRENGESYLEAGN | 0.0977
HMKQLNKRQDDILSLAEKEGYVSVENLAKTFTVSQQTIRRDINYLSDHEFLVRTHGGAFYSSG | 0.00837
HMKQNNYATKKELNFFVSRLISLLSYRDFFNPIEKKESMINNIEAIFTRSSLTSQELRTLHGIISNLVE | -3.07
HMKQPNSYGSVHKLPGKRRKPWRVRKTSGWLLDEQSGTVKQQYITIGYYATKQEALIALADYNENP | -1.62
HMKQQFTREQIIELMYKAYKKHKKKLNRVEIKKEKALPSYVTIGRYLNETSIKKIWEIVLSEKE | -0.43
HMKQVEVESVIGKSEEAANSILTKAGLKVNIGYKEDSSKPTDTVLSQDPAPGEKVDEGTTVTIVVNNYKKP | 0.0614
HMKRANGTGSVFKLNGKRRNPWVARVTQGFDDKGRQKYVNLGYYKTKREAENELLSYNSNPYDAN | 0.214
HMKREWKDDDPTVPAGWKVAWTTTSDNRAKIAFMSPDKKIFHSRKSALQHMLAAGTYAQSDIEKMTKGL | -0.112
HMKRFSPPSIEEVDSYIREKGYTVDAERFVNFYESKGWYVGKNKMKNWRAAVATWQKEDNKRN | 0.199
HMKRGDAYASEMIARLKEAHLIVMEGTLYPLLTRLKNDGLLSYRWEESTQGPPRKYYSITPVG | 0.424
HMKRITGHLTEKNKKWYAVINLYDTDGKRKEKWQGLNLDANKGNKREAEHRLRQILDQYNTD | -0.0127
HMKRITKKQLSQQLEQFFSSQPGKKLTLKDIFRALHLDTHPLKMLAMDIMEEMAWDDFITKKGENAYQLNT | -0.729
HMKRKAIDQSWQPDKEAIEILSKAGVNEEFIKEEIPEFILYWSEKGEESDTWNSKFIAQVRRQWAKTQH | -0.0567
HMKRQATLQIGSKRFGMDDLYFKFTVPFEDSEKLGTATIEAYNLSPATRNSIKKGMPIILNAGYEGDI | -0.225
HMKRTMVEAAMVAKLFNLTVRRIQQLTQDGVLTTELVDKKRRYDLLLTVQKYIAYLQEKVAK | -3.24
HMKRVVFFNGISWYHRTKELLDDMTTKYGKKGGFATPEEAEKSYWEYEERYKDRQRELQVAYLKN | -0.648
HMKSDEGEIKKIVEEIISKNASVVEDYKKGKEVALQFLVGQGMKATKGSANPELLKKIILENI | 0.506
HMKSDVVFDITDGTVKAMLKFNRSDVTILNNDGKNYYLFTANGEFTFKYQDGSGEYYEKTVYVDWLEDE | -1.24
HMKSFIWKQYTVQITKKNVKNTNVRIKRDNPHVILMSIPYSATYKAGLLALETPHIRHWLDNYERKLKQ | -1.48
HMKSIEVPNLINMTLRKAKIELIDNEFNLDTVIYEYNPNIREGRVSLQIPESGTILKSGSNISIHISKGIP | -1.53
HMKSIPKIKWNSTLENIKNFEYQDNFFESKEMYDLLVSFYKYGFVIIKNIPTNNNFIVKFANSIGS | -0.021

Sequence | soluble fraction (log2)
HMKSISMANGNVQLRINGVLASSLEVAALSPEDIKRVEYHDNPGLRYGEGIDIVLDYITIKRT | -0.384
HMKSISMSKLRHLLQLYVQGRSKKLISEQTGIARNTLKKYIKEFSEAGLSLEALLALSDKELEDLFVK | -1.01
HMKSLPQKLLAYLESQGLTRDEAGEFVKQGLKITSNDVDQIQLLLANTEVIDIKLQEFIAQK | 0.217
HMKSLVDLEISIVKKDMNYFVLPKINGEPLLMERISASEYKDFQLGKLSKEDIFQKHYPDYSEENIKNGRG | 0.145
HMKSSISKNWNPSKDAIEILTRAGIDQEFLENLIPEFVIYWIERSDVLISYNSKFIEHARLKWAQHTAEIQ | -0.0223
HMKSTPMYATAIVNIRSKAGTDSEILGKLNPSEEISVISSENGWSKVSYNGKEAYISSNYLSNAKP | -0.175
HMKSVFQPIYEDLLSRIQDGRLLPGMPLPSENALAVQYGTSRPTIRRAIGLLVEKSLVIRQPGIGSIVAS | -1.17
HMKTALQENVRAYRLERKWTQQALAEALEVSVGAVSKWESGVSRPELETLMRLAELFGVSTDALLGF | -1.75
HMKTAWDELNEVIEAYRGQESALIEVLHKAQEIMGYLPRDVQEAIAEGLHVPLNKVYGVVSFYHHFSV | 0.178
HMKTERTVRVQDQHLHYTLEEKPIKNVNLRIRPDGSVYVSAPFGTSRTLIDDFVASKSKQILAIQQAQSAM | -0.0134
HMKTGIGIVEANGGLRLRSQASTSSDVLSTAHNGDNVVVIRQVGNWYLVNYNLKIGYMHSDYITFKE | -4.82
HMKTGNIIAVSLVWKGKYYMIRMFFPSAARPSRADVQTEIEKVYPGSKLSSFSVSDYEPGQPLLQV | -2.31
HMKTGTTGLIGEIGVVKKALTPEGKVFVHGELWRAVSKTASPEGTLVQVIKINNLVLEVEKV | -1.47
HMKTILEKDQRLAKYISYLIKRKRLSPEQVIEHLKTDDHGYEKYPKSINTIYAAIDKGLIPSVTRQDM | -0.0163
HMKTKMTPELTTVIEAQIQKEWSPEQISGWLKKTHPVSVSHQRIYQHIQADRQQGGTLHQHLRQAK | 0.163
HMKTKTFSPGEIVKIQTRDKSWQGTILESHDPEIILLKLTTGYNIGIRENEIINAKVIEKSKKDVKDAE | 0.183
HMKTKTIMSTGAREDLVKMINEYYYSKNYIITEDNRIYNTKTEKFMDDLSVKFYRGRWKVIRN | -0.813
HMKTLDATQRLKLNGEGIIVFNFGKYVDQPVVEIFKKERGYFAWMMSKDFSQQVKNIITKIHNEEILGK | -2.76
HMKTLKHYFASIAHEFGREEAELMLLSVFKTPFEQRLMLFMKDPALTEAQVQQLDNLVRQRKQGVPLPYIL | -0.22
HMKTLPADPTVKNFSYTVVDGEIYYRENSIMTQIELSDNAKGRVAGMVELRQIVNELIDQQLND | -0.896
HMKTMEQSYIGRKIILDENVEDSALIKFEGIYWTFKSVSGPLKKGTEVEIIGIEGNKILIKNK | -0.198
HMKTPIEFGSVYNDPVRYVIGMSIKSAESINQAIYDMMKIFGDENNMNKFDSLPDEQAVLDMVNSF | 0.0157
HMKTRIQDLRKELGVTQSELADAVDVTRQTIISLEGGRYKASLVLAHKLAQFFHVTIEELFIFD | -2.21
HMKTRNISGNHEAVWQAVRSRTQAGHPTTRAVIMDDLKAQGLNTQKFSRWLKKLVDDGSVYMDGDTIIMGK | -0.186
HMKTRTVVLKSAGGNKIAVIKIIKEITGLGLVEAKAVADNGGNIKENIPAEEAEAIKTQLTEAGAEVEL | -0.192
HMKTRYPNVYQDEKGKFFYQIFIGTDTNGRKKLKKGRRDALGHPFSSAYQASKEAKRVQALYANVS | -1.23

Sequence | soluble fraction (log2)
HMKTSTGSAMYLTLDLAEKYAGQAFTLVHKKADGTFEYLYATADVDGKVKFGPVYELSPFMLVKGQL | -0.291
HMKTSVGSKMMVMANNLSIRKSANLLSEKLADLSKGDMVEYISSTNGWNKVRYNGYVGYVSSYYLKDTGEV | -0.738
HMKTTKDSVFEYIQKELMTNEEYKQGINTNVIAQHFGLQRSNISTILNELVKEDRLEKTNTRPVLYFLPQ | -0.0929
HMKTTKRERARAKLIQLLENEDRPAKEIYAGLGDIGVGSRTVEKVKKELQVTTYRSGGSWYWSLPKP | -0.169
HMKTVKPSQIPYSEFLKLVETDKINDVSMVGRNIIGHLDDGSKFKTYTPPNDPTLIEKLSSHNIVINAAPE | 0.149
HMKTVLDSLLRILDSKELDIVVLRHIVGLTLTEIAKEKDMKKGTVFWMYNRAVKKLRLESERMGL | -2.11
HMKTVPNVEGEKDGTAQSAIESAGLKVGKVTYQYDDNTSKGLVISQSVKGGEKVKPNTAIDLVVSNGPK | 0.0173
HMKTYSEAQLKIALESLIENGKKQGYLTFQEINEILPDGIINTQDLKVIISILKETGIVVAKEKPEINIDV | 0.0784
HMKVEFTPAYLKKFKANKNAWKFYEAQTNTYKKQSAWYVISAKQEETRLRRLDLLIYDSENGIHIKPLRR | -2.6
HMKVFTEDEMLEKIKEYLSTNSYINRRVMETQFGLRQNIALKWLKHFTEIGVLRKEGERNSPIYFLNN | ≥ 0.62
HMKVKIFNGMKLVTNSTGLTVDGKPAALDESNADAKTYSQGLYVFIVYQSGKIAVMQDGKFLGYA | -1.77
HMKVLNVLESEIVRLFKQGQQKDNIRDNIYKTHGQHYNNKKSFNVVFGRKWNSLLEQGFLES | -0.595
HMKVRDTQYIIEAAISKNVIRKSKNIYYYGTDIIGRSLEDAIASLNDKKNQDIKMTILQEIES | -0.493
HMKVSKNKIVKGMGFHHVALKAVDFDASFKFYTEGLGMKFYTSWGEGNGKIAMLDLGDGGILELFA | 0.0801
HMKVTGITDDILQRLKQQKGYLMLSDKSSPDEIYAAFGVSKKVFKQAIGTLFKQRQIIIEEQGIRLAN | -0.39
HMKVTQDIIFKRNGEEIKSKVLEITPDLIIYIDYSRADNIAREINISEVNMIIYKNGTSEIFSRPEE | 0.101
HMKVTTGIDGLIGEEGVALSDFSGKGKIMVHGEIWNAEFSGEVKKGEVLLVEKANGMTLITRKKN | 0.561
HMKYKWLAGQLRRELLENGGKKGYKLPTELELARRYQLSRQTVRRALQLLEEEGLILRRQGSGAYATGKPP | -0.316
HMKYLREEDYLPIGSIIRLDDRNFRVDHVNFMFKSVSLQDMDLTNSGQPIFRSESLPHIRELYEQQQNELV | -1.19
HMKYYIYQGLGDSGELTKIAEVTDVKTYTATGLEANTKYRFAVSAYNGLRESSKSNIITVTT | 0.0324
HMLADIGGRIADLRREVGLTQGELAEKADISVVHLSNIELGKKTPGLSTLIRIAEALDVATDWILQA | -1.02
HMLAFDKDDSGAVAEIILVLGRYWMDFSHKKYPAAEGVALRHKGLSHIFTVLRPYLSTPASELIGERLRR | -0.409
HMLAGVDTLADRELEVFQMLGRGKSTKEIAQVLNLGESTVETYRARIKEKLQLRSAAELYLRAGQWVRDHG | -0.184
HMLAIKKGGIFAILGPNGSGKSTFSKVLAGHPAYTVVDGDIFFKGLSILDLEPEERSHLGIFLAFQ | -0.153
